From PMC3441732, “Marburg Virus VP35 Can Both Fully Coat the Backbone and Cap the Ends of dsRNA for Interferon Antagonism” come the findings set out here.

Data set [1] deals with T1, MARV VP35 RBD (Marburg virus, UniProt P35259 205-329). Briefly: ITC; 10 mM Tris pH 8.0, 200 mM NaCl, 2 mM TCEP ([…], and ITC); temperature not stated. As to conditions: protein: recombinant, tags: 6xHis (pET46b), TEV-cleaved, chain copies: 4, label: 5'-32P sense strand (dot blot), none in ITC. On the technique in general: In ITC the heat of successive injections is recorded.
T1 sequence (P35259 205-329): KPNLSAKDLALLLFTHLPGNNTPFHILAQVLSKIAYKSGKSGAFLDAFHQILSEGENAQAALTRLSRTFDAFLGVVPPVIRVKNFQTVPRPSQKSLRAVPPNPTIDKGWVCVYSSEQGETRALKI

The target in data set [2] is T2, RESTV VP35 RBD (Reston virus (RESTV), UniProt Q8JPY0 205-329).
T2 sequence: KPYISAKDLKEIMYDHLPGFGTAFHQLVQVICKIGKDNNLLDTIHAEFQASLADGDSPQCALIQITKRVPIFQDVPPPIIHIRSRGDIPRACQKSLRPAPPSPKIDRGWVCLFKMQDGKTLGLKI
The data set can be described thus: dual-filter dot blot; Hill 2.6±0.2; 10 mM Tris pH 8.0, 200 mM NaCl, 2 mM TCEP ([…], and ITC); temperature not stated. To be noted: protein: recombinant; tags: 6xHis, cleaved; chain copies: 2; label: 5'-32P sense strand (dot blot); none in ITC; blunt.

For data set [3], the target named is T3, EBOV VP35 RBD (Ebola virus, UniProt Q05127 216-340). The data set can be described thus: dual-filter dot blot; Hill 2.9±0.3; 10 mM Tris pH 8.0, 200 mM NaCl, 2 mM TCEP ([…], and ITC); temperature not stated. As to conditions: protein: recombinant; tags: 6xHis, cleaved; label: 5'-32P sense strand (dot blot); none in ITC; blunt.
T3 sequence (Q05127 216-340): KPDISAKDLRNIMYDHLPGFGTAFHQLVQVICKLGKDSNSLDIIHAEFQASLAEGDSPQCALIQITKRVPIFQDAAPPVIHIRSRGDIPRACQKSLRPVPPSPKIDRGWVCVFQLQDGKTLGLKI
Data set [4] addresses T1, MARV VP35 RBD. Briefly: dual-filter dot blot; Hill 3.5±0.3; 10 mM Tris pH 8.0, 200 mM NaCl, 2 mM TCEP ([…], and ITC); temperature not stated. As to conditions: protein: recombinant; tags: 6xHis (pET46b), TEV-cleaved; chain copies: 4; label: 5'-32P sense strand (dot blot); none in ITC; blunt.
Data set [5] deals with T1, MARV VP35 RBD. Briefly: X-ray crystal structure; 10 mM Tris pH 8.0, 200 mM NaCl, 2 mM TCEP ([…], and ITC); temperature not stated. As to conditions: protein: recombinant; tags: 6xHis (pET46b), TEV-cleaved; chain copies: 4.
The target in data set [6] is T1, MARV VP35 RBD. The data set can be described thus: dual-filter dot blot; Hill 3.1±0.2; 10 mM Tris pH 8.0, 200 mM NaCl, 2 mM TCEP ([…], and ITC); temperature not stated. To be noted: protein: recombinant; tags: 6xHis (pET46b), TEV-cleaved; chain copies: 4; label: 5'-32P sense strand (dot blot); none in ITC.
Data set [7] addresses T2, RESTV VP35 RBD. Briefly: dual-filter dot blot; Hill 3.4±0.4; 10 mM Tris pH 8.0, 200 mM NaCl, 2 mM TCEP ([…], and ITC); temperature not stated. To be noted: protein: recombinant; tags: 6xHis, cleaved; chain copies: 2; label: 5'-32P sense strand (dot blot); none in ITC.
In data set [8] the target is T3, EBOV VP35 RBD. The data set can be described thus: dual-filter dot blot; Hill 3.6±0.4; 10 mM Tris pH 8.0, 200 mM NaCl, 2 mM TCEP ([…], and ITC); temperature not stated. To be noted: protein: recombinant; tags: 6xHis, cleaved; label: 5'-32P sense strand (dot blot); none in ITC.
For data set [9], the target named is T1, MARV VP35 RBD. The data set can be described thus: dual-filter dot blot; Hill 2.1±0.2; 10 mM Tris pH 8.0, 200 mM NaCl, 2 mM TCEP ([…], and ITC); temperature not stated. As to conditions: protein: recombinant; tags: 6xHis (pET46b), TEV-cleaved; chain copies: 4; label: 5'-32P sense strand.

B1: 18-bp blunt-ended dsRNA (dsRNA)
RNA 1: AGAAGGAGGGAGGGAGGA
RNA 2: UCCUCCCUCCCUCCUUCU
Broadly, the Kd is the free concentration of one partner at which half of the binding sites on the other are occupied at equilibrium, for simple one-to-one binding. For the molecule B1, the Kd in [1] (blunt) is 28.6 ± 16.5 µM; in [2] it was 2.5 ± 0.1 µM; in data set [3] it was 1.9 ± 0.1 µM; in [4], 8.4 ± 0.2 µM.

B2: 12-bp palindromic dsRNA (crystal) (dsRNA)
RNA 1: CUAGACGUCUAG
RNA 2: CUAGACGUCUAG
With B2, the binding result in [5] is reported as “binds”.

B3: 18-bp dsRNA with 3' overhang (dsRNA)
RNA 1: AGAAGGAGGGAGGGAGGAGAG
RNA 2: CUCUCCUCCCUCCCUCCUUCU
For the molecule B3, the Kd worked out at 3.4 µM in data set [1], 9.3 ± 0.2 µM in [6], 6 ± 0.2 µM in data set [7] and 17.1 ± 0.7 µM in data set [8].

B4: 18-bp dsRNA with 5' overhang (dsRNA)
RNA 1: GAGAGAAGGAGGGAGGGAGGA
RNA 2: UCCUCCCUCCCUCCUUCUCUC
Turning to B4, the Kd in [9] was determined as 4.4 ± 0.3 µM.
